Results published in patent publication US20040014147A1 (RIGEL PHARMACEUTICALS, published 2004).
Where two headings read alike, the source gives them in different places. Where no end group is shown, it is not given here.

B1: peptide AR02E8 wt (peptide, not shown: large carriers)
peptide: DTMQVQCGVCRSGYVVAFWDVGP
modifications: cysteine pairing not given here; also: expressed as GAL4/BFP-linker-peptide fusion, fusion sequences not given here
B2: peptide AR02E8RS (peptide, not shown: large carriers)
peptide: DTMQVQCGVCAGGYVVAFWDVGP
B3: peptide AR02E8VC (peptide, not shown: large carriers)
peptide: DTMQVQCGAGRSGYVVAFWDVGP
B4: peptide AR02E8YV (peptide, not shown: large carriers)
peptide: DTMQVQCGVCRSGAGVAFWDVGP

How the values were obtained:
human adenosine kinase [1] = molecular target: T1, human adenosine kinase (human, UniProt P55263 22-362); assay: cell-based or functional assay
T1 sequence (P55263 other isoform, or with tags, fused parts or gaps): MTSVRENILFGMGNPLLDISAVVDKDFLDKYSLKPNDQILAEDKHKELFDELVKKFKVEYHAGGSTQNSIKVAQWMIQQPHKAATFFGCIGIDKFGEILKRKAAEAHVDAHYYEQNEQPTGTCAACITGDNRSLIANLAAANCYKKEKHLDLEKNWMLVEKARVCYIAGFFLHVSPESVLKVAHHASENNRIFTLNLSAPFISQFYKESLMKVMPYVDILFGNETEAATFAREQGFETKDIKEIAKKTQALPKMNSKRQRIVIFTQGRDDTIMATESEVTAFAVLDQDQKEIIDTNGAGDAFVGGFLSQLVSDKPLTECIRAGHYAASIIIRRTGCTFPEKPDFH

human adenosine kinase [2] = molecular target: T1, human adenosine kinase; assay: cell-based or functional assay; remark: listed apart in the source

Binder	Reporter Ratio (human adenosine kinase [1])	endogenous ε inhibition ratio (human adenosine kinase [1])	Reporter Ratio (human adenosine kinase [2])
B1	1.77	15.3	2.93
B2	–	–	1.46
B3	–	–	1.13
B4	–	–	1.07
